# Measured values published in article PMC3448026.
# B1: BacG (Bacillus subtilis subsp. subtilis str. 168) (protein)
# chain: MSKRTAFVMGASQGIGKAIALKLADQHFSLVINSRNLDNIESVKEDILAKHPEASVIVLAGDMSDQHTRAGIFQKIESQCGRLDVLINNIPGGAPDTFDNCNIEDMTATFTQKTVAYIDAIKRASSLMKQNEFGRIINIVGNLWKEPGANMFTNSMMNAALINASKNISIQLAPHNITVNCLNPGFIATDRYHQFVENVMKKNSISKQKAEEQIASGIPMKRVGSAEETAALAAFLASEEASYITGQQISADGGSMKSI
# Assays:
# purified protein [1] = substrate: O=C(O)C(=O)/C=C1/C=C[C@H](O)CC1; test: purified protein; format: biochemical, Bacillus subtilis; conditions: 2 mM NADH (saturating), 50 mM potassium phosphate pH 8.0, 5 µM BacG
# purified protein [2] = substrate: O=C(O)C(=O)/C=C1\C=C[C@H](O)CC1; test: purified protein; format: biochemical, Bacillus subtilis; conditions: 2 mM NADH (saturating), 50 mM potassium phosphate pH 8.0, 1 µM BacG
protein,measurement,setting,value
B1,kcat,purified protein [1],0.553 s⁻¹
same,kcat,purified protein [2],1.19 s⁻¹
